This test relates to RAJI cells. The experiment in a line: JNG assay, co-culture with RAJI cells. The class given is cell-based. The following applies: JNG cells expressing construct, co-culture with Raji. Put shortly:
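Read-out is NFAT-driven GFP measured by flow cytometry after ~4–18 h co-culture of SAR-expressing JNG cells with target cells (E:T about 1:2). SARs were introduced by lentiviral spinfection and selected with puromycin or blasticidin when possible; scores (+/- to 5+ ≈ 5–50% GFP+) are relative to parental JNG cells.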

B1: 22155 (protein)
chain: MALPVTALLLPLALLLHAARPACEVQLLESGGGLIQPGGSLRLSCAASGFTFSSHAMTWVRQAPGKGLEWVSAISGSGDYTHYADSVKGRFTISRDNSKNTVYLQMNSLRAEDSAVYYCAKDEDGGSLLGHRGQGTLVTVSSGTGGGGSGGGGSGGGGSEFSYVLTQPPSVSVAPGQTARITCGGNNIGGKSVHWYQQPPGQAPVVVVYDDSDRPSGIPERFSGSNSGNTATLTISRVEAGDEAVYYCQVWDSSSDHVVFGGGTKLTVLLEADVSPKPTIFLPSIAETKLQKAGTYLCLLEKFFPDVIKIHWQEKKSNTILGSQEGNTMKTNDTYMKFSWLTVPEKSLDKEHRCIVRHENNKNGVDQEIIFPPIKTDVITMDPKDNCSKDANDTLLLQLTNTSAYYMYLLLLLKSVVYFAIITCCLLRRTAFCCNGEKSRAKRSGSGATNFSLLKQAGDVEENPGPTSMDWIWRILFLVGAATGAHSGPQVQLQESGGGLAQAGGSLRLSCAASGRTFSMGWFRQAPGKEREFVAAITYSGGSPYYASSVRGRFTISRDNAKNTVYLQMNSLKPEDTAVYYCAANPTYGSDWNAENWGQGTQVTVSSGSGGGGSGGGGSGGGGSFEQLQLQESGPGLVKPSETLSLTCTVSGGSISSSSYFWGWIRQPPGKGLEWIGSIYYSGITYYNPSLKSRVTISVDTSKNQFSLKLSSVTAADTAVYYCARHDGAVAGLFDYWGQGTLVTVSSATRPHTKPSVFVMKNGTNVACLVKEFYPKDIRINLVSSKKITEFDPAIVISPSGKYNAVKLGKYEDSNSVTCSVQHDNKTVHSTDFEVKTDSTDHVKPKETENTKQPSKSCHKPKAIVHTEKVNMMSLTVLGLRMLFAKTVAVNFLLTAKLFFLRAKRSGSGVKQTLNFDLLKLAGDVESNPGPSRGHMTEYKPTVRLATRDDVPRAVRTLAAAFADYPATRHTVDPDRHIERVTELQELFLTRVGLDIGKVWVADDGAAVAVWTTPESVEAGAVFAEIGPRMAELSGSRLAAQQQMEGLLAPHRPKEPAWFLATVGVSPDHQGKGLGSAVVLPGVEAAERAGVPAFLETSAPRNLPFYERLGFTVTADVEVPEGPRTWCMTRKPGA
As for B1, the “NFAT-GFP ASSAY: Raji” value was 2+ (refer to approximately 5%, 10%, 20%, 30%, 40% and 50% GFP positive cells).

B2: 22182 (protein)
chain: MALPVTALLLPLALLLHAARPACEVQLVESGGGVVQPGRSLRLSCAASGFSFSGYGMHWVRQAPGKGLEWVAYISYDGSNKYYADSVKGRFTISRDNSKNTLYLQMNSLRAEDTAVYYCAKDPAWGLRLGESSSYDFDYWGQGTMVTVSSGTGGGGSGGGGSGGGGSEFDIQMTQSPSSLSASVGDRVTITCKASDHINNWLAWYQQKPGQAPKLLIYGATTLETGVPSRFSGSGSGTDYTLTISSLQPEDFATYYCQQSWNTPWTFGQGTKLEIKRLEDLKNVFPPEVAVFEPSEAEISHTQKATLVCLATGFYPDHVELSWWVNGKEVHSGVCTDPQPLKEQPALNDSRYCLSSRLRVSATFWQNPRNHFRCQVQFYGLSENDEWTQDRAKPVTQIVSAEAWGRADCGFTSESYQQGVLSATILYEILLGKATLYAVLVSALVLMAMVKRKDSRGRAKRSGSGATNFSLLKQAGDVEENPGPTSMDWIWRILFLVGAATGAHSFEQVQLQQPGAELVKPGASVKMSCKASGYAFSSYWINWMKQKPGQGLEWIGQIYPGDGDTNYNGKFKGRATLTADTSSSTAYMQLSSLTSEDSAVYFCARSITTVVGCAMDYWGQGTSVTVSSTRIQNPDPAVYQLRDSKSSDKSVCLFTDFDSQTNVSQSKDSDVYITDKCVLDMRSMDFKSNSAVAWSNKSDFACANAFNNSIIPEDTFFPSPESSCDVKLVEKSFETDTNLNFQNLSVIGFRILLLKVAGFNLLMTLRLWSSRAKRSGSGVKQTLNFDLLKLAGDVESNPGPSRGHMTEYKPTVRLATRDDVPRAVRTLAAAFADYPATRHTVDPDRHIERVTELQELFLTRVGLDIGKVWVADDGAAVAVWTTPESVEAGAVFAEIGPRMAELSGSRLAAQQQMEGLLAPHRPKEPAWFLATVGVSPDHQGKGLGSAVVLPGVEAAERAGVPAFLETSAPRNLPFYERLGFTVTADVEVPEGPRTWCMTRKPGA
For the molecule B2, the “NFAT-GFP ASSAY: Raji” value is 5+ (refer to approximately 5%, 10%, 20%, 30%, 40% and 50% GFP positive cells).

These data come from patent US20230212319A1, “NOVEL ANTIGEN BINDING DOMAINS AND SYNTHETIC ANTIGEN RECEPTORS INCORPORATING THE SAME” (University of Southern California, priority 2020, published 2023).
